Substitutions are numbered along the chain they refer to. Names and notes keep the numbering of the source.
B1: PhaB1 (Cupriavidus necator H16) (protein)
chain: MTQRIAYVTGGMGGIGTAICQRLAKDGFRVVAGCGPNSPRREKWLEQQKALGFDFIASEGNVADWDSTKTAFDKVKSEVGEVDVLINNAGITRDVVFRKMTRADWDAVIDTNLTSLFNVTKQVIDGMADRGWGRIVNISSVNGQKGQFGQTNYSTAKAGLHGFTMALAQEVATKGVTVNTVSPGYIATDMVKAIRQDVLDKIVATIPVKRLGLPEEIASICAWLSSEESGFSTGADFSLNGGLHMG
B2: PhaB1 (Cupriavidus necator H16; N142V) (protein)
chain: B1 chain with N142V
B3: PhaB1 (Cupriavidus necator H16; Y185F) (protein)
chain: B1 chain with Y185F
B4: PhaB1 (Cupriavidus necator H16; N142V/Y185F) (protein)
chain: B1 chain with N142V, Y185F

Substrate: CC(=O)CC(=O)SCCNC(=O)CCNC(=O)[C@H](O)C(C)(C)COP(=O)(O)OP(=O)(O)OC[C@H]1O[C@@H](n2cnc3c(N)ncnc32)[C@H](O)[C@@H]1OP(=O)(O)O
Experiment: purified protein
Format: biochemical, Cupriavidus necator
Conditions: 200 μM NADPH, 1 to 20 μM acetoacetyl-CoA, 100 mM Tris-HCl pH 8.0, 30 °C
[1] = substrate inhibition above 12 μM

| Protein | Km [1] [µM] | Vmax [1] [µmol/min/mg] | kcat [1] [s⁻¹] | kcat/Km [1] [M⁻¹ s⁻¹] | Km [µM] | Vmax [µmol/min/mg] | kcat [s⁻¹] | kcat/Km [M⁻¹ s⁻¹] |
| --- | --- | --- | --- | --- | --- | --- | --- | --- |
| B1 | 1.99 ± 0.23 | 162 | 71.2 ± 2.7 | 3.58e+07 ± 4.4e+06 | – | – | – | – |
| B2 | – | – | – | – | 58.5 ± 18.1 | 175 | 76.7 ± 2.7 | 1.31e+06 ± 470000 |
| B3 | – | – | – | – | 86.2 ± 20.6 | 127 | 55.8 ± 7.6 | 650000 ± 180000 |
| B4 | – | – | – | – | 109 ± 38 | 53.9 | 23.7 ± 3.7 | 220000 ± 80000 |

Reference: paper PMC6716841, “Modification of acetoacetyl-CoA reduction step in Ralstonia eutropha for biosynthesis of poly(3-hydroxybutyrate-co-3-hydroxyhexanoate) from structurally unrelated compounds” (Microbial Cell Factories, 2019)
